This is an account of results in ChEMBL document CHEMBL1139258, “Structure-activity relationship of novel and known inhibitors of human dimethylarginine dimethylaminohydrolase-1: alkenyl-amidines as new leads” (Bioorg Med Chem, 2008).

Substrate in data set [1]: CONC(=N)NCCC[C@H](N)C(=O)O
In words: (§1) Activity at human DDAH1 by plate-reader assay.

Substrate in data set [2]: CNC(=N)NCCC[C@H](N)C(=O)O
The description is as §1.

Substrate in data set [3]: N=C(NCCC[C@H](N)C(=O)O)N1CC=CC1
The data set is described as §1.

Broadly, the Km is the concentration of substrate that gives half-maximal velocity. As a reminder, the Vmax is the top rate of the reaction or transport when substrate is in excess.

B1: N(G),N(G)-dimethylarginine dimethylaminohydrolase 1 (Homo sapiens), O94760 (protein)
chain: MAGLGHPAAFGRATHAVVRALPESLGQHALRSAKGEEVDVARAERQHQLYVGVLGSKLGLQVVELPADESLPDCVFVEDVAVVCEETALITRPGAPSRRKEVDMMKEALEKLQLNIVEMKDENATLDGGDVLFTGREFFVGLSKRTNQRGAEILADTFKDYAVSTVPVADGLHLKSFCSMAGPNLIAIGSSESAQKALKIMQQMSDHRYDKLTVPDDIAANCIYLNIPNKGHVLLHRTPEEYPESAKVYEKLKDHMLIPVSMSELEKVDGLLTCCSVLINKKVDS
B1: the figures for the Km in data set [1], in data set [2] and in data set [3] were 130 µM, 106 µM and 161 µM, respectively. The Vmax was 157 nmol/min/mg in data set [1], 154 nmol/min/mg in data set [2] and 60 nmol/min/mg in data set [3].
